Measured values published in the supplement of paper PMC10567573.

B1: C10orf62 (parent)
chain: RALEEVEMKLQKNFLTQRENTIAG
B2: NETO1 (parent)
chain: GFSPIIGRFCGQQNPPVIKSSGRF

Variants of: B1
Assay: protein stability index of a GFP-peptide fusion (GPS, HEK-293T) (PSI 1-6); higher = more stable
Details: c terminus: a fixed tail appended
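Also: lentivirally expressed fusions sorted by FACS into six bins by GFP to DsRed ratio, PSI derived from sequencing read proportions per bin multiplied by bin number.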

Variant | protein stability index
RALEEVEMCLQKNFLTQRENTIAG [K9C] | 2.41
RALEEVEMALQKNFLTQRENTIAG [K9A] | 3.09
RALEEMEMKLQKNFLTQRENTIAG [V6M] | 3.23
RALEEDEMKLQKNFLTQRENTIAG [V6D] | 4.17
RALEESEMKLQKNFLTQRENTIAG [V6S] | 4.27
RALEELEMKLQKNFLTQRENTIAG [V6L] | 3.52
RALEEWEMKLQKNFLTQRENTIAG [V6W] | 3.76
RALEECEMKLQKNFLTQRENTIAG [V6C] | 3.56
RALEEKEMKLQKNFLTQRENTIAG [V6K] | 4.43
RALEENEMKLQKNFLTQRENTIAG [V6N] | 4.33
RALEEYEMKLQKNFLTQRENTIAG [V6Y] | 4.03
RALEEFEMKLQKNFLTQRENTIAG [V6F] | 3.76
RALEEGEMKLQKNFLTQRENTIAG [V6G] | 4.3
RALEEHEMKLQKNFLTQRENTIAG [V6H] | 4.58
RALEEREMKLQKNFLTQRENTIAG [V6R] | 4.13
RALEETEMKLQKNFLTQRENTIAG [V6T] | 3.73
RALEEAEMKLQKNFLTQRENTIAG [V6A] | 3.19
RALEEIEMKLQKNFLTQRENTIAG [V6I] | 2.52
RALEEQEMKLQKNFLTQRENTIAG [V6Q] | 3.93
RALEEPEMKLQKNFLTQRENTIAG [V6P] | 4.17

Variant | protein stability index
RALEEEEMKLQKNFLTQRENTIAG [V6E] | 4.75
RALEEVETKLQKNFLTQRENTIAG [M8T] | 4.23
RALEEVEVKLQKNFLTQRENTIAG [M8V] | 3.35
RALEEVEFKLQKNFLTQRENTIAG [M8F] | 3.65
RALEEVESKLQKNFLTQRENTIAG [M8S] | 4.08
RALEEVEYKLQKNFLTQRENTIAG [M8Y] | 3.6
RALEEVEKKLQKNFLTQRENTIAG [M8K] | 2.63
RALEEVEAKLQKNFLTQRENTIAG [M8A] | 4.09
RALEEVECKLQKNFLTQRENTIAG [M8C] | 3.58
RALEEVEIKLQKNFLTQRENTIAG [M8I] | 3.26
RALEEVEQKLQKNFLTQRENTIAG [M8Q] | 4.12
RALEEVEEKLQKNFLTQRENTIAG [M8E] | 4.92
RALEEVELKLQKNFLTQRENTIAG [M8L] | 3.3
RALEEVERKLQKNFLTQRENTIAG [M8R] | 3.38
RALEEVEGKLQKNFLTQRENTIAG [M8G] | 4.64
RALEEVENKLQKNFLTQRENTIAG [M8N] | 3.75
RALEEVEDKLQKNFLTQRENTIAG [M8D] | 4.6
RALEEVEWKLQKNFLTQRENTIAG [M8W] | 2.81
RALEEVEHKLQKNFLTQRENTIAG [M8H] | 4.23
RALEEVEPKLQKNFLTQRENTIAG [M8P] | 3.94

Variant | protein stability index
RALKEVEMKLQKNFLTQRENTIAG [E4K] | 3.36
RALNEVEMKLQKNFLTQRENTIAG [E4N] | 3.29
RALQEVEMKLQKNFLTQRENTIAG [E4Q] | 2.89
RALWEVEMKLQKNFLTQRENTIAG [E4W] | 1.92
RALPEVEMKLQKNFLTQRENTIAG [E4P] | 4.36
RALFEVEMKLQKNFLTQRENTIAG [E4F] | 3.13
RALGEVEMKLQKNFLTQRENTIAG [E4G] | 4.05
RALTEVEMKLQKNFLTQRENTIAG [E4T] | 3.72
RALLEVEMKLQKNFLTQRENTIAG [E4L] | 2.31
RALIEVEMKLQKNFLTQRENTIAG [E4I] | 1.99
RALAEVEMKLQKNFLTQRENTIAG [E4A] | 2.9
RALYEVEMKLQKNFLTQRENTIAG [E4Y] | 2.56
RALDEVEMKLQKNFLTQRENTIAG [E4D] | 3.44
RALHEVEMKLQKNFLTQRENTIAG [E4H] | 3.18
RALCEVEMKLQKNFLTQRENTIAG [E4C] | 3.31
RALREVEMKLQKNFLTQRENTIAG [E4R] | 4
RALVEVEMKLQKNFLTQRENTIAG [E4V] | 2.36
RALMEVEMKLQKNFLTQRENTIAG [E4M] | 2.63
RALSEVEMKLQKNFLTQRENTIAG [E4S] | 3.64

Variants of: B2
Assay: as above
Details: c terminus: a fixed tail appended

Variant | protein stability index
GFSPIIGRFCGQQNPPVIKSSGRK [F24K] | 3.64
GFSPIIGRFCGQQNPPVIKSSGRV [F24V] | 2.42
GFSPIIGRFCGQQNPPVIKSSGRA [F24A] | 2.42
GFSPIIGRFCGQQNPPVIKSSGRP [F24P] | 2.51
GFSPIIGRFCGQQNPPVIKSSGRL [F24L] | 3.69
GFSPIIGRFCGQQNPPVIKSSGRS [F24S] | 3.88
GFSPIIGRFCGQQNPPVIKSSGRQ [F24Q] | 3
GFSPIIGRFCGQQNPPVIKSSGRH [F24H] | 2.26
GFSPIIGRFCGQQNPPVIKSSGRG [F24G] | 3.51
GFSPIIGRFCGQQNPPVIKSSGRN [F24N] | 2.64
GFSPIIGRFCGQQNPPVIKSSGRT [F24T] | 2.65
GFSPIIGRFCGQQNPPVIKSSGRY [F24Y] | 2.4
GFSPIIGRFCGQQNPPVIKSSGRC [F24C] | 2.48
GFSPIIGRFCGQQNPPVIKSSGRD [F24D] | 2.98
GFSPIIGRFCGQQNPPVIKSSGRM [F24M] | 1.97
GFSPIIGRFCGQQNPPVIKSSGRR [F24R] | 2.66
GFSPIIGRFCGQQNPPVIKSSGRI [F24I] | 2.23
GFSPIIGRFCGQQNPPVIKSSGRE [F24E] | 2.76

Variant | protein stability index
GFSPIIGRFCGQQNPPVIKSSGRW [F24W] | 1.6
GFSPIIGRFCGQQNPPVIKSSGPF [R23P] | 3.38
GFSPIIGRFCGQQNPPVIKSSGLF [R23L] | 2.35
GFSPIIGRFCGQQNPPVIKSSGIF [R23I] | 1.65
GFSPIIGRFCGQQNPPVIKSSGFF [R23F] | 1.89
GFSPIIGRFCGQQNPPVIKSSGGF [R23G] | 1.67
GFSPIIGRFCGQQNPPVIKSSGKF [R23K] | 2.44
GFSPIIGRFCGQQNPPVIKSSGYF [R23Y] | 2.6
GFSPIIGRFCGQQNPPVIKSSGWF [R23W] | 2.26
GFSPIIGRFCGQQNPPVIKSSGNF [R23N] | 2.09
GFSPIIGRFCGQQNPPVIKSSGTF [R23T] | 1.64
GFSPIIGRFCGQQNPPVIKSSGVF [R23V] | 2.22
GFSPIIGRFCGQQNPPVIKSSGQF [R23Q] | 1.56
GFSPIIGRFCGQQNPPVIKSSGHF [R23H] | 1.76
GFSPIIGRFCGQQNPPVIKSSGEF [R23E] | 2.04
GFSPIIGRFCGQQNPPVIKSSGMF [R23M] | 1.96
GFSPIIGRFCGQQNPPVIKSSGSF [R23S] | 1.94
